Legend:
[1] = target: GII.4 Saga P-domain (native, non-deamidated) (human norovirus GII.4 Saga); test: native MS; 150 mM ammonium acetate pH 7.3, purified GII.4 Saga P-domain, 25 C, also at low protein concentration
[2] = target: T1, MNV CW1 P-domain (MNV-1 P-dimer) (Murine norovirus 1, UniProt Q80J94); test: methyl TROSY NMR titration, TITAN global lineshape analysis; type: binding
T1 construct: gene ORF2; MBP-His8 fusion from E. coli BL21(DE3), cleaved with HRV3C; MIL(proS)V(proS)A 13C-methyl labelled for NMR

[3] = target: T1, MNV CW1 P-domain (MNV-1 P-dimer); test: differential scanning fluorimetry (SYPRO orange); type: binding; conditions: pH 5.3, 20 mM sodium acetate, 100 mM NaCl; 3 µM protein; stabilisation rises with ligand concentration
[4] = target: GII.4 Saga P-domain deamidated at position 373 (iso-aspartate, iD) (human norovirus GII.4 Saga); test: ion-exchange chromatography of exchanging dimers; 373iD/iD and 373Q/Q dimers mixed 1:1, total 1.24 mg/ml, 75 mM sodium phosphate, 100 M NaCl (so in the source), 0.02% NaN3, pH 7.3, 298 K; aliquots over 38 days on analytical cation exchange chromatography; fraction of mixed dimers fitted to an exponential; dimer to monomers
[5] = target: the molecule itself; test: NMR titration; methyl TROSY (1H,13C HMQC) spectra of MILproSVproSA labeled apo P-domain at six concentrations 12.5-226 uM; global two-dimensional lineshape analysis with TITAN (dimerization model); 298 K, 20 mM sodium acetate-d3, 100 mM NaCl, pH* 5.26 in D2O; dimer to monomers
[6] = target: the molecule itself; test: native MS; 150 mM ammonium acetate pH 5.3, 2-92 uM purified P-domain, 25 C; relative dimer peak area against total protein fitted; dimer to monomers
[7] = target: the molecule itself; test: SEC-MALS; Superdex 75 10/300 GL, 10-200 uM protein, 20 mM sodium acetate, 100 mM NaCl, pH 5.3
[8] = target: the molecule itself; test: NMR titration; 1H,15N TROSY HSQC spectra of [U-2H,15N] labeled P-domain at 24-200 uM protein; intensities of unassigned dimer cross-peaks; 298 K, 20 mM sodium acetate, 100 mM NaCl, pH* 5.3; dimer to monomers
[9] = target: the molecule itself; test: SEC; analytical Superdex 75 Increase 3.2/300, 20 mM sodium acetate, 100 mM NaCl, pH 5.3, 278 K; 250 nM-270 uM protein; apparent molecular weight against feed concentration fitted, apparent KD; lower limit from the 10x dilution; dimer to monomers

Q: “GII.4 Saga P-domain (native, non-deamidated) (domain or fragment)” was tested. Which stoichiometry N [1] did it give?
A: Its stoichiometry N is 2.

Q: With C[C@H](CCC(=O)NCC(=O)O)[C@H]1CC[C@H]2[C@@H]3[C@H](O)C[C@@H]4C[C@H](O)CC[C@]4(C)[C@H]3CC[C@]12C [GCDCA, glycochenodeoxycholic acid] as the molecule, how does the Kd [2] read?
A: Its Kd is 10.5 ± 0.5 µM.

Q: And the TM [3]?
A: Its TM is “thermostability of CW1 P-domains improves considerably with increasing GCDCA concentrations”.

Q: Which results are given for “GII.4 Saga P-domain point mutant N373Q (domain or fragment)”?
A: dimer half-life time [4]: 5.3 days; koff [4]: 1.51e-06 s⁻¹

B1: MNV-1 (CW1) P-domain (domain or fragment)
chain: TIYRMVDLPVIQPRLCTHARWPAPVYGLLVDPSLPSNPQWQNGRVHVDGTLLGTTPISGSWVSCFAAEAAYKFQSGTGEVATFTLIEQDGSAYVPGDRAAPLGYPDFSGQLEIEVQTETTKTGDKLKVTTFEMILGPTTNADQAPYQGRVFASVTAAASLDLVDGRVRAVPRSIYGFQDTIPEYNDGLLVPLAPPIGPFLPGEVLLRFRTYMRQIDTADAAAEAIDCALPQEFVSWFASNAFTVQSEALLLRYRNTLTGQLLFECKLYNEGYIALSYSGSGPLTFPTDGIFEVVSWVPRLYQLASVGSLATGRMLKQ
notes: Protruding (P)-domain of the major capsid protein VP1 of murine norovirus MNV-1 (CW1); construct truncated at the C-terminus compared to prior work; Monomer-dimer equilibrium in solution; Used unlabeled, [U-2H,15N] labeled or 13C-methyl (MILproSVproSA) labeled; also called MNV CW1 P-domain; MNV.CW1 P-domain; source: E. coli BL21 DE3, purified (Ni-NTA, HRV3C cleavage, Ni-NTA, SEC at pH 5.3)
Q: How did the Kd [5] turn out when B1 was run?
A: Its Kd is 6.9 µM.

Q: What about the koff [5] of the same molecule?
A: The koff was 1.25 s⁻¹.

Q: What about the kon [5] of the same molecule?
A: The kon was 140000 M⁻¹ s⁻¹.

Q: What about the Kd [6] of the same molecule?
A: Its Kd is 32 µM.

Q: What about the “stoichiometry N” value [7] of the same molecule?
A: The value was 2.

Q: And the Kd [8]?
A: Its Kd is roughly 31 µM.

Q: And the Kd [9]?
A: Its Kd is 4 to 40 µM.
